We go through 15 molecules from US20030059769, “High affinity nucleic acid ligands to lectins” (published 2003).

Data set [1] has as its target T1, L-selectin (LS-Rg) (Homo sapiens, UniProt P14151 P14151:39-332).
T1 sequence: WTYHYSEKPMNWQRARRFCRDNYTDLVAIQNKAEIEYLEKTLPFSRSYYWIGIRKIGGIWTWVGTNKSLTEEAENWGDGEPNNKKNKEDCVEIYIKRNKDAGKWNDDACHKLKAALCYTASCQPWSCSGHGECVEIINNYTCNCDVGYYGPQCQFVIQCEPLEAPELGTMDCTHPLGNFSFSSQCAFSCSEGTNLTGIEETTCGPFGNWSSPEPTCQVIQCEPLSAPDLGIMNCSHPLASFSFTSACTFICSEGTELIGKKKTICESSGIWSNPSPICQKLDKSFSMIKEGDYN
The data set can be described thus: filter; truncate at base of lower stem. As to conditions: tags: human IgG2 Fc fusion; chain copies: dimer; hairpin.

Data set [2] deals with T2, soluble L-selectin (Homo sapiens, UniProt P14151 P14151:39-332).
T2 sequence: T1 sequence
The data set can be described thus: filter; binding undetectable; Table 16 sequence differs from SEQ 358. As to conditions: tags: R&D Systems.

The target in data set [3] is T1, L-selectin (LS-Rg). As to the kind of experiment: filter; upper stem and loop only. The conditions noted are these: tags: human IgG2 Fc fusion; chain copies: dimer; hairpin. On the procedure:
(§1) As described in SELEX Patent Applications, a nitrocellulose filter partitioning method was used to determine the affinity of RNA ligands for LS-Rg and for other proteins. Filter discs (nitrocellulose/cellulose acetate mixed matrix, 0.45 μm pore size, Millipore) were placed on a vacuum manifold and washed with 3 ml of SHMCK 140 buffer under vacuum. Reaction mixtures, containing ³²P labeled RNA pools and unlabeled LS-Rg, were incubated in SHMCK 140 for 10-20 min at 37° C., and then immediately washed with 3 ml SHMCK 140. The filters were air-dried and counted in a Beckman LS6500 liquid scintillation counter without fluor. Alternatively, binding studies employed 96 well micro-titer manifolds essentially as described in Example 13, paragraph E.
Predictions of minimal high affinity sequences for family 1 ligands can be made and serve as a partial test of the postulated secondary structure.

Data set [4] addresses T1, L-selectin (LS-Rg). The data set can be described thus: filter; room temperature; Table 13 prints 110 nM (probably pM), 380 pM at 37 C. The conditions noted are these: tags: human IgG2 Fc fusion; chain copies: 2 (stated dimer). On the procedure:
As described in SELEX Patent Applications and in Example 7, paragraph C, a nitrocellulose filter partitioning method was used to determine the affinity of ssDNA ligands for LS-Rg and for other proteins. For these experiments a Gibco BRL 96 well manifold was substituted for the 12 well Millipore manifold used in Example 7 and radioactivity was determined with a Fujix BAS100 phosphorimager. Bindin, data were analyzed as described in Example 7, paragraph C.

The target in data set [5] is T3, L-selectin on PBMC / lymphocytes (Homo sapiens, UniProt P14151 P14151:39-372).
T3 sequence: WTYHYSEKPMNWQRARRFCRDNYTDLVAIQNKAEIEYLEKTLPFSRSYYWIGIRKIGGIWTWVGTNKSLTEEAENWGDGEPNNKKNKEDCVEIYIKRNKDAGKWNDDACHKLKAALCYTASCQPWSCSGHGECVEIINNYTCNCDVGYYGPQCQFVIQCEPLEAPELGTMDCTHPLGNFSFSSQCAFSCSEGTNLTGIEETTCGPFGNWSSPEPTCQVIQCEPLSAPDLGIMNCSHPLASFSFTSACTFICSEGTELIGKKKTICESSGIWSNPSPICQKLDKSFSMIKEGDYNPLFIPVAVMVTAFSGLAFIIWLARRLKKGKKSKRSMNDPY
As to the kind of experiment: flow; half-saturation on human lymphocytes; divalent cation dependent. The conditions noted are these: label: 32P or 5'-fluorescein (cells); hairpin. From the text:
(§2) A variety of monomeric nucleic acid ligands and multivalent Complexes have been examined in flow cytometry.

Data set [6] has as its target T1, L-selectin (LS-Rg). As to the kind of experiment: inhibition; sialyl-LewisX competition ELISA. The conditions noted are these: tags: human IgG2 Fc fusion; chain copies: 2 (stated dimer). On the procedure: SLe^X-BSA (Oxford GlycoSystems, Oxford, UK) in 1X PBS, without CaCl₂, and MgCl₂, (GIBCO/BRL) was immobilized at 100 ng/well onto a microtiter plate by overnight incubation at […]. The wells were blocked for 1 h with the assay buffer consisting of 20 mM HEPES, 111 mM NaCl, 1 mM CaCl₂, 1 mM MgCl₂, 5 mM KCl, 8.9 mM NaOH, final pH 8, and 1% globulin-free BSA (Sigma). The reaction mixtures, incubated for 90 min with orbital shaking, contained 5 nM L-Selectin-Rg, a 1:100 dilution of anti-human IgG-peroxidase conjugate (Sigma), and 0 - 50 ruM of competitor in assay buffer. After incubation, the plate was washed with BSA-free assay buffer to remove unbound chimera-antibody complex and incubated for 25 min with O-phenylenediamine dihydrochloride peroxidase substrate (Sigma) by shaking in the dark at 22°0 C. Absorbance was read at 450 nm on a Bio-Kinetics Reader, Model EL312e (Bio-Tek Instruments, Laguna Hills, Calif.). Values shown represent the mean ±s.e from duplicate, or triplicate, samples from one representative experiment.
Sialyl Lewis^X is the minimal carbohydrate ligand bound by selecting.
Background: ELISA stands for enzyme-linked immunosorbent assay.

Data set [7] concerns the target T3, L-selectin on PBMC / lymphocytes. As to the kind of experiment: flow; half-saturation.
Text: as §2

Data set [8] has as its target T1, L-selectin (LS-Rg). The data set can be described thus: filter; 37 C; lacks 7-nt bulge. As to conditions: tags: human IgG2 Fc fusion; chain copies: dimer; label: 32P; hairpin lacking bulge. On the procedure:
as §1
These calculations assume two ligand binding sites per chimera.

For data set [9], the target named is T2, soluble L-selectin. As to the kind of experiment: filter; 37 C, soluble L-selectin. As to conditions: tags: R&D Systems; label: 32P. On the procedure:
Unless otherwise indicated, all materials used in the 2′-F RNA SELEX against the L-selectin/IgG2 chimera, LS-Rg, were identical to those of Examples 7, paragraph A and 13, paragraph A. SHMCK-140 buffer, used for all SELEX and binding experiments, was 1 mM CaCl₂, 1 mM MgCC₂, 140 mM NaCl, 5 mM KCl. and 20 mM HEPES, pH 7.4. A soluble form of L-selectin, corresponding to the extracellular domains, was purchased from R&D Systems and used for some nitrocellulose filter binding experiments.
as §1

For data set [10], the target named is T2, soluble L-selectin. As to the kind of experiment: filter; binding undetectable, 37 C. The conditions noted are these: tags: R&D Systems.
In data set [11] the target is T4, P-selectin (PS-Rg) (Homo sapiens, UniProt P16109 P16109:42-321). As to the kind of experiment: filter; 37 C, HSMC. The conditions noted are these: tags: human IgG1 Fc fusion; chain copies: dimer; label: 32P.
Data set [12] concerns the target T5, E-selectin (ES-Rg) (Homo sapiens, UniProt P16581 P16581:22-556).
T5 sequence: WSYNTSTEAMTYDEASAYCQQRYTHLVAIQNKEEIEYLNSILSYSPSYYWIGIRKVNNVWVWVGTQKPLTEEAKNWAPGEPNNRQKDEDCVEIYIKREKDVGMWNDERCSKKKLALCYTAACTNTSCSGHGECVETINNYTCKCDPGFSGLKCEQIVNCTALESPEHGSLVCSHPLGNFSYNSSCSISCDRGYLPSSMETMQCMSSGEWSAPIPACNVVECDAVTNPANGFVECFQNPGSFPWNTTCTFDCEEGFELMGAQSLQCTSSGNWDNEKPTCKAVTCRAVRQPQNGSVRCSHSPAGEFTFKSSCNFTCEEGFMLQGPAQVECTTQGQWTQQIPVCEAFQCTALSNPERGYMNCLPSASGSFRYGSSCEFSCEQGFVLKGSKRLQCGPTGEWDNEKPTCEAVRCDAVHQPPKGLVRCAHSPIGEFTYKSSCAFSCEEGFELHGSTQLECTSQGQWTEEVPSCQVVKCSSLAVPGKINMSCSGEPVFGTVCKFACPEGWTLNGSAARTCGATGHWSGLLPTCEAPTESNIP
As to the kind of experiment: filter; specificity control. As to conditions: tags: human IgG1 Fc fusion; chain copies: dimer (inferred); label: 32P. On the procedure:
The affinity of P-selectin ligands to ES-Rg, LS-Rg and CD22β-Rg were determined by nitrocellulose partitioning. […] In general, a ligand's affinity for ES-Rg and LS-Rg is at least 10⁴-fold lower than for PS-Rg. […] The specificity of oligonucleotide ligand binding contrasts sharply with the binding of cognate carbohydrates by the selectins and confirms the proposition that SELEX ligands will have greater specificity than carbohydrate ligands.

Data set [13] deals with T4, P-selectin (PS-Rg). As to the kind of experiment: filter; 37 C; 0.01 nM at 4 C. As to conditions: tags: human IgG1 Fc fusion; chain copies: dimer; label: 32P.
Data set [14] addresses T5, E-selectin (ES-Rg). The data set can be described thus: filter; specificity control. As to conditions: tags: human IgG1 Fc fusion; chain copies: dimer (inferred); label: 32P. This is another data set of the same source.
For data set [15], the target named is T4, P-selectin (PS-Rg). The data set can be described thus: filter; HSMC; SLeX IC50 2 nM. As to conditions: tags: human IgG1 Fc fusion; chain copies: dimer; hairpin.
The target of data set [16] is P-selectin on activated platelets (Homo sapiens, UniProt P16109 P16109:42-830). As to the kind of experiment: flow; biotinylated, SA-PE; divalent cation dependent; blocked by G1 antibody. As to conditions: hairpin.
Chain of P-selectin on activated platelets (P16109 42-830, one chain of several): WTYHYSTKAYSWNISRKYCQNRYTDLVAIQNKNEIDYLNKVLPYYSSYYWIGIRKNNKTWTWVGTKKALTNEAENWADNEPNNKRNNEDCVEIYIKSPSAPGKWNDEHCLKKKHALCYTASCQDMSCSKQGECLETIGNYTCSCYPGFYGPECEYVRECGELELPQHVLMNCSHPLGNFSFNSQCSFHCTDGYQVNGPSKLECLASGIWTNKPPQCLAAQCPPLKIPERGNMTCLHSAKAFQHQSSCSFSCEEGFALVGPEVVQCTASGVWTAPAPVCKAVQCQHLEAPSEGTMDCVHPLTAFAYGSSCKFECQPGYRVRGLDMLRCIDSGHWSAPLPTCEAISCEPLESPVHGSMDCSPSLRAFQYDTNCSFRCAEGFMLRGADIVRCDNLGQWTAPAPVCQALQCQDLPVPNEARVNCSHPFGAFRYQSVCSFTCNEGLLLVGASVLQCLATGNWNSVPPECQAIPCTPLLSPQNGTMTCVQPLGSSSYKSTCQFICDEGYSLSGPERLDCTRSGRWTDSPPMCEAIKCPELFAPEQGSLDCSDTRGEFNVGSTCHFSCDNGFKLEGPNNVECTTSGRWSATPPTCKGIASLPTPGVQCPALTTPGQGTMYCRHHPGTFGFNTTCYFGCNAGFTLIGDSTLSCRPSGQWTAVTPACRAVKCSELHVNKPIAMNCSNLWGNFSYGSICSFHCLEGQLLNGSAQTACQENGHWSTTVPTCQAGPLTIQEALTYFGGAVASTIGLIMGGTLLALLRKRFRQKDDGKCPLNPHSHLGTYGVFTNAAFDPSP
Procedure: To detect oligonucleotide ligand binding, 15 μl BB+ containing ligand conjugated to either FITC or biotin was incubated 20-30 minutes at 4° C. with 10 μl platelet suspension. The FITC-figand incubations were diluted to 200 μl with BB+ and analyzed on a FACSCaliber flow cytometer. The biotinylated-ligand reactions were incubated with streptavidin-phycoehrin (SA-PE) (Becton Dickinson) for 20 minutes at 4° C., before dilution and analysis. Wash steps with 500 μl BB+ and 700 ×g spins have been used without compromising the quality of the results.
Since the P-selectin ligands were isolated against purified protein, their ability to bind P-selectin presented in the context of a cell surface was determined in flow cytometry experiments with activated human platelets. Platelets were gated by side scatter and CD61 expression. […] The expression of P-selectin was monitored with anti-CD62P monoclonal antibody (Becton Dickinson).

T4 sequence (P16109 42-321, one chain of several): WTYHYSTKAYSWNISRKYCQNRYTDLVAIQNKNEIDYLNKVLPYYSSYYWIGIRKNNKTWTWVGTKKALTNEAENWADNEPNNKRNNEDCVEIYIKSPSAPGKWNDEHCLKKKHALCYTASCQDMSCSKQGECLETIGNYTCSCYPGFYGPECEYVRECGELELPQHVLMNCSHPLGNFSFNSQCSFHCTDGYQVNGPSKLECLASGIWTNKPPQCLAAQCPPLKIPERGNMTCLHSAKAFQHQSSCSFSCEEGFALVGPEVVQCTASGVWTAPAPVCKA

Consider GGUACCUCAAAUUGCGUGUUUUCAAGCAGUAUC (ssRNA, 2'-F on all C and U) [LF1514T4], for which the binding signal in the data set with L-selectin (LS-Rg) [1] is less than 2 fold weaker than LF1514.

B1: LF1535 (ssRNA)
RNA: GGGAGGACGAUGCGGCAAUGUGUUUCUCAAAUUGCUUUCUCCCUUCAGACGACUCGCCCGA
modifications: 2'-F C and U
As for B1, the binding result with soluble L-selectin [2] is recorded as “no binding”. As for UGCGUGUUUUCAAGCA (ssRNA, 2'-F on all C and U) [LF1514T1], the binding signal with L-selectin (LS-Rg) [3] is no less than 100 fold weaker than LF1514.

B2: LD233 (ssDNA)
DNA: CTACCTACGATCTGACTAGCCACGACAGAGAACAAGGCGTTAGACGTTATCCGACCACGGCTTACTCTCATGTAGTTCC
In general, Kd refers to the concentration at which binding is half-saturated. Take B2: in the data set with L-selectin (LS-Rg) [4], binding was characterised by a dissociation constant (Kd) of 0.12 nM.

Usually IC50 stands for the point on the concentration scale where inhibition reaches its midpoint. High values mean weaker potency, low ones greater potency. TAGCCAAGGTAACCAGTACAAGGTGCTAAACGTAATGGCTTCGGCTTAC (ssDNA) [LD201T1] returned a Kd in data set [5] of 3 nM. In the data set with L-selectin (LS-Rg) [6], the IC50 is roughly 3 nM. The term EC50 denotes the concentration giving half of the maximal effect. Low readings indicate greater potency, high ones weaker potency. TAGCCAAGGTAACCAGTACAAGGTGCTAAACGTAATGGCTTCGGCTTAC (ssDNA, biotin, multivalent on streptavidin) [bio-LD201T1/streptavidin] gave a concentration for a half-maximal effect (EC50) in [7] (label: labeled streptavidin) of roughly 0.15 nM.

B3: LD201T1 branched dimer (ssDNA)
DNA: TAGCCAAGGTAACCAGTACAAGGTGCTAAACGTAATGGCTTCGGCTTAC
modifications: two copies linked 3' ends via five-unit ethylene glycol spacers to 3'-3' symmetric linker
B3 came in with an EC50 in [7] (label: 5' fluorescein) of roughly 0.15 nM.

B4: LF1512 (ssRNA)
RNA: GGGAGGACGAUGCGGCACACGUGUUUUCAAGUGUGCUCCUGGGAUCAGACGACUCGCCCGA
modifications: 2'-F on all C and U
On to B4, for which, in the data set with L-selectin (LS-Rg) [8], the Kd amounted to 315 nM.

B5: LF1817 (ssRNA)
RNA: GGGAGGACGAUGCGGUGCUUAAACAACGCGUGAAUCGAGUUCAUCCACUCCUCCUCAGACGACUCGCCCGA
modifications: 2'-F on all C and U
Turning to B5, in the data set with soluble L-selectin [9], binding was characterised by a dissociation constant (Kd) of 2.3 nM.

B6: LF1516 (ssRNA)
RNA: GGGAGGACGAUGCGGUCAUUCUCUAAAAAAGUAUUCCGUACCUCCACAGACGACUCGCCCGA
modifications: 2'-F on all C and U
Regarding B6, the Kd with soluble L-selectin [9] worked out at 1.3 nM.

B7: LF1528 (ssRNA)
RNA: GGGAGGACGAUGCGGUUAGGUCAAUGAUCUUAGUUUUCGAUUCGUCAGACGACUCGCCCGA
modifications: 2'-F C and U
Turning to B7, in the data set with soluble L-selectin [10], the binding result is “no binding”.

B8: PF377 (ssRNA)
RNA: GGGAGACAAGAAUAAACGCUCAACGAGCCAGGAACAUCGACGUCAGCAAACGCGAGCGCAACCAGUAACACCUUCGACAGGAGGCUCACAACAGGC
modifications: 2'-F on all C and U
For B8, the Kd stood at 0.0185 nM with P-selectin (PS-Rg) [11] and 2300 nM with E-selectin (ES-Rg) [12].

B9: PA350 (ssRNA)
RNA: GGGAGACAAGAAUAAACGCUCAAGCCCCAAACGCAAGUGAGCAUCCGCAACAGGGAAGAAGACAGACGAUUGAUUCGACAGGAGGCUCACAACAGGC
modifications: 2'-NH2 on all C and U
For B9, the values for the Kd in the data set with P-selectin (PS-Rg) [13] and in the data set with E-selectin (ES-Rg) [14] were 0.06 nM and 375 nM, respectively.

B10: LF1816 (ssRNA)
RNA: GGGAGGACGAUGCGGUGCUAUUCUUAAGCGGCGUGUAAAUCAAGCUAGAUCAUCGUCAGACGACUCGCCCGA
modifications: 2'-F C and U
B10: the binding result with soluble L-selectin [10] is given as “no binding”. On to CUCAACGAGCCAGGAACAUCGACGUCAGCAAACGCGAG (ssRNA, 2'-F on all C and U) [PF377s1], for which, in the data set with P-selectin (PS-Rg) [15], the Kd worked out at 0.06 nM. The molecule also showed an EC50 in [16] of roughly 0.05 nM.
